Publication doi:10.1101/266833 (bioRxiv, 2018)

Molecular target: T1, yUpf1-HD (220-851) (S. cerevisiae, UniProt P30771 220-851)
T1 sequence (looked up): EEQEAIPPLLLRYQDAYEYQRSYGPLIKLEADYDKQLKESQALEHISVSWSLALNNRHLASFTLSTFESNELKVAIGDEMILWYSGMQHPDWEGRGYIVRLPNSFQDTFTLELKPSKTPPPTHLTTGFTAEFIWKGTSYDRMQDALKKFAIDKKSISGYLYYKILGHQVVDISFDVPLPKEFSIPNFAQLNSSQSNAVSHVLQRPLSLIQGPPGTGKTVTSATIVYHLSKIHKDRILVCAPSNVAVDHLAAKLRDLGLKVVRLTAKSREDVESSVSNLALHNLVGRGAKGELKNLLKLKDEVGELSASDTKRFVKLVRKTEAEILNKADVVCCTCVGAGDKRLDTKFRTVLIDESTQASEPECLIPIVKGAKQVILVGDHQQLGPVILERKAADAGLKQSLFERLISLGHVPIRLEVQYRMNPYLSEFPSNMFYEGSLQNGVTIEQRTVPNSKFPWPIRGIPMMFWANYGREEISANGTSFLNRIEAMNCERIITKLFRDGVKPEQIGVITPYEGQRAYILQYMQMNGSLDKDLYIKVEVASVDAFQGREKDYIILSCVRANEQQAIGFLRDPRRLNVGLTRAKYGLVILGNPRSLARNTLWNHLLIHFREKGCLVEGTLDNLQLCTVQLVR
Assay: pull-down

binding result: binds
B1: CBP-Nmd4 (natural protein, S. cerevisiae, UniProt Q12129 1-218, looked up)
chain: MTQYNFIIDASAFEKGLGNIKRWCSDCTEAVTLNFYIPTFTLNELDFLQQRRKSFAARESLKFIDRLDDSKFANLKVFIEFPEVLDIILWSDVMEHNDSSGKINIAKLPKRLKNLLKSCIYKCYLEGNEGLHWFLISEDPQIREMAMQCNIPSCSIVDVDSILSKDMNDKSFRESEKFNNMMLKNGTKEESENGREIIRTNFNKTVYASRGTGELWSP
